Target: the molecule itself
Assay: SDS-PAGE and Western blot; P. pastoris cells expressing the protein compared with a negative control; immunoblotting with an anti-His tag antibody; bands assigned to monomer and dimer by molecular mass

B1: full-length Guillardia theta anion channelrhodopsin 1 (GtACR1_full) (natural protein, UniProt L1J207 1-438, looked up)
chain: MSSITCDPAIYGEWSRENQFCVEKSLITLDGIKYVQLVMAVVSACQVFFMVTRAPKVPWEAIYLPTTEMITYSLAFTGNGYIRVANGKYLPWARMASWLCTCPIMLGLVSNMALVKYKSIPLNPMMIAASSICTVFGITASVVLDPLHVWLYCFISSIFFIFEMVVAFAIFAITIHDFQTIGSPMSLKVVERLKLMRIVFYVSWMAYPILWSFSSTGACIMSENTSSVLYLLGDALCKNTYGILLWATTWGLLNGKWDRDYVKGRNVDGTLMPEYEQDLEKGNTERYEDARAGETFEVKMFGRTLTSVRRSRRRPRRDIVFNGGDRNRLSDSDSERRRRRKKYQRKDSESENSSDESMGSEHEKNRRKGKKKNKENRRSAPPKEDSTSDTLRDAEIKRIMDLMKRNAGSDIPGLDGDGRLRDDGGLIPTRNEEHDDSA
modifications: all-trans-retinal bound to Lys238 via a protonated Schiff base linkage
notes: Guillardia theta anion channelrhodopsin 1 (GtACR1), full length, 438 amino acids (rhodopsin domain plus cytoplasmic domain, CPD); Calculated molecular mass 51.0 kDa; Details of construction and expression are in the Supporting information; also called full-length GtACR1; source: P. pastoris SMD1168H, recombinant expression (pPICZ B vector, codon-optimised gene); not shown: His8, C-terminal, kept
B1 was tested, and the “stoichiometry N” value was 2.

B2: GtACR1 without the CPD (GtACR1_ΔCPD), C-terminal eight-histidine tag (domain or fragment, Guillardia theta, UniProt L1J207 1-295, looked up)
chain: MSSITCDPAIYGEWSRENQFCVEKSLITLDGIKYVQLVMAVVSACQVFFMVTRAPKVPWEAIYLPTTEMITYSLAFTGNGYIRVANGKYLPWARMASWLCTCPIMLGLVSNMALVKYKSIPLNPMMIAASSICTVFGITASVVLDPLHVWLYCFISSIFFIFEMVVAFAIFAITIHDFQTIGSPMSLKVVERLKLMRIVFYVSWMAYPILWSFSSTGACIMSENTSSVLYLLGDALCKNTYGILLWATTWGLLNGKWDRDYVKGRNVDGTLMPEYEQDLEKGNTERYEDARAGET
modifications: all-trans-retinal bound to Lys238 via a protonated Schiff base linkage
notes: Guillardia theta anion channelrhodopsin 1 (GtACR1) with the C-terminal cytoplasmic domain (CPD, 143 amino acids) deleted; composed of 295 amino acids; Calculated molecular mass 34.4 kDa; also called CPD-deleted GtACR1; GtACR1 rhodopsin domain; source: P. pastoris SMD1168H, recombinant expression (pPICZ B vector, codon-optimised gene); not shown: His8, C-terminal, kept
In the case of B2, the “stoichiometry N” value is reported as 2.

From article PMC10637977, “The preferential transport of NO3^− by full-length Guillardia theta anion channelrhodopsin 1 is enhanced by its extended cytoplasmic domain” (The Journal of Biological Chemistry, 2023)
